Results on 3 substances are retold here after PMC4689412.

The target in this test is AP-1 clathrin adaptor complex (UniProt O43747). The experiment in a line: GST pull-down, Western blot with anti-γ-adaptin, densitometry. Conditions: HeLa cell lysates; GST-fusions immobilized on GSH-sepharose beads; parent: est. 100; read off a plot. For orientation: Immunoblotting shows a protein as a band on a membrane.
UniProt O43747, sequence (O43747 whole entry, looked up, the tested form may be a part, one chain of several): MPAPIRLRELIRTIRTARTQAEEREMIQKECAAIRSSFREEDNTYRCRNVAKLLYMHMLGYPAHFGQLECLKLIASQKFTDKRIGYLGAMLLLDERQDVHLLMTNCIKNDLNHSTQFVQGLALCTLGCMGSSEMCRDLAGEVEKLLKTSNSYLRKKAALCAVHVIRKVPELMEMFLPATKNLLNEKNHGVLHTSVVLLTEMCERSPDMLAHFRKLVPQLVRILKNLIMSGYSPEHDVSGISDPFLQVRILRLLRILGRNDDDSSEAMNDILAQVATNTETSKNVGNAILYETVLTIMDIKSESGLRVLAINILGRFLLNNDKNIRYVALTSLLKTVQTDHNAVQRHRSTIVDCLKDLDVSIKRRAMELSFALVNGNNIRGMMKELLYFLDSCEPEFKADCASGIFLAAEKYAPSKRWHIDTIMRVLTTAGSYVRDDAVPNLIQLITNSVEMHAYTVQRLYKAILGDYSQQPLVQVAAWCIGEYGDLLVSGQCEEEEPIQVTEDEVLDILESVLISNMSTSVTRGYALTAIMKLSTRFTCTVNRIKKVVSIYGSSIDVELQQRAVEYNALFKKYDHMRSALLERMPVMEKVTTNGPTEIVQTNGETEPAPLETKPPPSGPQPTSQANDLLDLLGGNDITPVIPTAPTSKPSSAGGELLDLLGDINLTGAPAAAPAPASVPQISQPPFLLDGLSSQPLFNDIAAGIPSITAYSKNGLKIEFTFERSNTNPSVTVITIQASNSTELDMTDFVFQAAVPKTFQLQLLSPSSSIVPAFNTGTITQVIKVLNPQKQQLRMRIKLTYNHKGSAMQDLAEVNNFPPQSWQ

“GST-Nef, wild-type HIV-1 NL4.3 Nef fused to glutathione-S-transferase L164A; L165A”: the percent of parent was 17 % of control.

As to “GST-Nef, wild-type HIV-1 NL4.3 Nef fused to glutathione-S-transferase P129A; G130A”, the percent of parent was 74 % of control. Turning to “GST-Nef, wild-type HIV-1 NL4.3 Nef fused to glutathione-S-transferase P131A; G132A”, the percent of parent was 75 % of control.
